One molecule from patent US20110229521A1, “NUTRITIONAL SUPPORT OF THE IMMUNE SYSTEM DURING ANTI-CANCER TREATMENT” (priority 2008, published 2011) can be followed below.

The test in a line: Body weight, haematological evaluation and flow cytometry of tumor-bearing mice on supplemented diets with chemotherapy (Example 2). The class given is in vivo, C57BL/6 (H-2b) mice. Here is the method: Mice. […] The animals were distributed into 7 different group diets. There was a control group that received the diet AIN 93 for adult rodents (maintenance). […] Control animals without chemotherapeutic treatment were run in parallel for all tested diets. Body weight was assessed every two days. Blood samples were obtained at day 2, 4 and 10 after the chemo-treatment and at sacrifice (14 or 28 days). An autopsy was performed and tumor mass was assessed.
Haematological evaluation.
Flow cytometric analysis.
A general note: In flow cytometry, cells or beads pass a laser one at a time.

B1: lactoferrin: diet with 25 mg/day of lactoferrin (protein, UniProt P24627 20-708, looked up)
Lactotransferrin: APRKNVRWCTISQPEWFKCRRWQWRMKKLGAPSITCVRRAFALECIRAIAEKKADAVTLDGGMVFEAGRDPYKLRPVAAEIYGTKESPQTHYYAVAVVKKGSNFQLDQLQGRKSCHTGLGRSAGWIIPMGILRPYLSWTESLEPLQGAVAKFFSASCVPCIDRQAYPNLCQLCKGEGENQCACSSREPYFGYSGAFKCLQDGAGDVAFVKETTVFENLPEKADRDQYELLCLNNSRAPVDAFKECHLAQVPSHAVVARSVDGKEDLIWKLLSKAQEKFGKNKSRSFQLFGSPPGQRDLLFKDSALGFLRIPSKVDSALYLGSRYLTTLKNLRETAEEVKARYTRVVWCAVGPEEQKKCQQWSQQSGQNVTCATASTTDDCIVLVLKGEADALNLDGGYIYTAGKCGLVPVLAENRKSSKHSSLDCVLRPTEGYLAVAVVKKANEGLTWNSLKDKKSCHTAVDRTAGWNIPMGLIVNQTGSCAFDEFFSQSCAPGADPKSRLCALCAGDDQGLDKCVPNSKEKYYGYTGAFRCLAEDVGDVAFVKNDTVWENTNGESTADWAKNLNREDFRLLCLDGTRKPVTEAQSCHLAVAPNHAVVSRSDRAAHVKQVLLHQQALFGKNGKNCPDKFCLFKSETKNLLFNDNTECLAKLGGRPTYEEYLGTEYVTAIANLKKCSTSPLLEACAFLTR
As for B1, the “toxicity (bone marrow)” value (chemotherapy treated group compared to the control, FIG. 11) is recorded as “less toxicity”. Moreover, where the note is “following chemotherapy, supplemented diet”, the Global lymphocyte population entry is reported as “less depressed following chemotherapy”. Further, the leukocytic increase result (oxaliplatin treated animals, supplemented diet) is “tended to be higher”. In addition, the “immune cell population / concentration” value (second phase (tumor-induced toxicity)) was “increase in their immune cell population”.
